Experimental data from US20240383994A1.

Tests used:
[1] = target: cynoCD40-mFc (monkey (cyno)); assay: flow cytometry, blocking of cynoCD40-mFc (2 µg/mL) binding to CHO-K1-cynoCD40L cells
[2] = target: human CD40 (hCD40), full length, on cells (human) (UniProt P25942)
Chain of human CD40 (hCD40), full length, on cells (human) (P25942 21-277 limits assumed): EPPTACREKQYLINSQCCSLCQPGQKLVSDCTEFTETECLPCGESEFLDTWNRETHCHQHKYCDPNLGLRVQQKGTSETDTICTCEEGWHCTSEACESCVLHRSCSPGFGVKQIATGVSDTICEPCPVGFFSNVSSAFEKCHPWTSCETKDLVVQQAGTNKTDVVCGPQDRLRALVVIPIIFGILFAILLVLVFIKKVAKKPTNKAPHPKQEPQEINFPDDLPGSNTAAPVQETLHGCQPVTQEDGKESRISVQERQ

Chain of cynoCD40-mFc (monkey (cyno)) (chain, as listed by the source limits assumed, form in doubt): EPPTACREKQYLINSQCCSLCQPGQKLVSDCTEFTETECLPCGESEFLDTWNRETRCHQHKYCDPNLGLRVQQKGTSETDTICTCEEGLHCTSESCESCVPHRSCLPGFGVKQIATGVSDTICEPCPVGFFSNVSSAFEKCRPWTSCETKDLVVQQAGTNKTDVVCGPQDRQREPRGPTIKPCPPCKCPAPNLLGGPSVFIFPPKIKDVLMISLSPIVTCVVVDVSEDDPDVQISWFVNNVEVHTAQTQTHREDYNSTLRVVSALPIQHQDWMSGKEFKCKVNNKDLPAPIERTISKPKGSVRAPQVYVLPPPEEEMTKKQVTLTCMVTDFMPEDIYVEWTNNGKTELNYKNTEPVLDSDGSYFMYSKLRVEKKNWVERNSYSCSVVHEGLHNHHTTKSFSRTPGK

Binder | IC50 [1] [nM] | IC50; NF-κB luciferase reporter (RLU), 293T-hCD40-NFκB cells stimulated with human CD40L protein 10 µg/mL [2] [ng/mL]
B01 (antibody, V domains shown) VH: QIQLVQSGPELKKPGETVKISCKASGYTFTNYGMNWVKQAPGKGLKWMGWINPYTGEPTYADDFKGRFAFSVETSASTAYLQINNLKNEDTATYFCARKPPFDYWGQGTTLTVSS VL: DIVMTQAAPSVPVTPGESVSISCRSSKSLLHSNGNTYLYWFLQRPGQSPQILIYRVSNLASGVPDRFSGSGSGTAFTLRISRVEAEDVGVYYCMQHVEYPFTFGSGTKLEIK | – | 8.16
B02 (antibody, V domains shown) VH: EVQLQQSGPELVKPGASVKMSCKASGYTFTSYVMYWVKQKPGQGLEWIGYVNPYNDGTNYNEKFKGKATLTSDKSSSTAYMELSSLTSEDSAVYYCARGAMDYWGQGTSVTVSS VL: DIVMTQAAPSVPVTPGESVSISCRSSKSLLHSQGNTYLYWFLQRPGQSPQILIYRVSNLASGVPDRFSGSGSGTAFTLRISRVEAEDVGVYYCMQHVEYPFTFGSGTKLEIK | – | 5.21
A03 (antibody, V domains shown) VH: DVQLQESGPDRVKPSQSLSLTCTVTGYSITSDYSWHWIRQFPGNKLEWMGYIYSSGHTYYNPSLKSRISFTRDTSKNQFFLQLNSVTTEDTATYYCAIYYYGRSYFDNWGRGTTLTVSS VL: QIVLTQSPAIMSASPGEKVTLTCSASSSVNYMHWYQQKSGTSPKRWIYDTSKLASGVPARFSGSGSGTSYSLTISSMEAEDAATYYCQQWSSNPLTFGAGTKLELK | – | 287
B03 (antibody, V domains shown) VH: EVKLVESGGGLVQPGGSLRLSCATSGFTFSDFYMEWVRQPPGKRLEWIAASRDKANDYTTEYSPSVQGRFIVSRDSSQSILYLQMNALRTEDTAIYYCARDVGRSYALDYWGQGTSVTVSS VL: QVVLTQSPAIMSASPGEKVTMTCSASSSVTYMHWYQQKSGTSPKRWIYVTSKLASGVPTRFSGSGSGTSYSLTISSMEAEDAATYYCQQWSRKPPTFGAGTKLELK | – | 16.2
A01 (antibody, V domains shown) VH: QVQLKESGPGLVAPSQSLSITCTVSGFSLPTSGVHWVRQPPGKGLEWLGVIWAGGDTNYNSALMSRLSISKDNSKSQVFLKMNSLQKDDTAIYYCLGHGHFDVWGAGTTVTVSS VL: DVVMTQTPLSLPVSLGDQASISCRSSQSLVHSSGNTYLQWYLQKPGQSPGLLIYKVSNRFSGVPDRFSGSGSGTDFTLKISRVEAEDLGVYFCSQTTHVPWTFGGGTKLEIK | – | 2.22
Chi-A01 (antibody, human IgG4 S228P, kappa, V domains shown) VH: QVQLKESGPGLVAPSQSLSITCTVSGFSLPTSGVHWVRQPPGKGLEWLGVIWAGGDTNYNSALMSRLSISKDNSKSQVFLKMNSLQKDDTAIYYCLGHGHFDVWGAGTTVTVSS VL: DVVMTQTPLSLPVSLGDQASISCRSSQSLVHSSGNTYLQWYLQKPGQSPGLLIYKVSNRFSGVPDRFSGSGSGTDFTLKISRVEAEDLGVYFCSQTTHVPWTFGGGTKLEIKR | 25.2 | –
A02 (antibody, V domains shown) VH: QVQLKESGPGLVAPSQSLSITCTVSGFSLTSSGVHWVRQPPGKGLEWLGVIWAGGDTSYNSALMSRLSISKDNSKSQVFLKMNSLQTDDTAMYYCLGHGHLDVWGAGTTVTVSS VL: DVVMTQTPLSLPVSLGDQASISCRSSQSLVHSSGNTYLHWYLQKPGQSPGLLIYKVSNRFSGVPDRFSGSGSGTDFTLKISRVEAEDLGVYFCSQTTHVPWTFGGGTKLEIK | – | 2.79

Second part, the binder after the results:

IC50 [1] [nM] | IC50; NF-κB luciferase reporter (RLU), 293T-hCD40-NFκB cells stimulated with human CD40L protein 10 µg/mL [2] [ng/mL] | Binder
25.5 | – | hzA01-3.1 (antibody, human IgG4 S228P, kappa, V domains shown) VH: QVQLQESGPGLVKPSETLSLTCTVSGFSLPTSGVHWIRQPPGKGLEWIGVIWAGGDTNYNPSLKSRVTISKDNSKNQVFLKLSSVTAADTAVYYCLGHGHFDVWGQGTLVTVSS VL: DVVMTQSPLSLPVTLGQPASISCRSSQSLVHSSGNTYLQWYLQRPGQSPGLLIYKVSNRFSGVPDRFSGSGSGTDFTLKISRVEAEDVGVYYCSQTTHVPWTFGQGTKLEIKR
35.8 | – | hzA01-3.3 (antibody, human IgG4 S228P, kappa, V domains shown) VH: QVQLKESGPGLVKPSETLSLTCTVSGFSLPTSGVHWIRQPPGKGLEWIGVIWAGGDTNYNSALKSRVTISKDNSKSQVFLKLSSVTAADTAVYYCLGHGHFDVWGQGTLVTVSS VL: DVVMTQSPLSLPVTLGQPASISCRSSQSLVHSSGNTYLQWYLQRPGQSPGLLIYKVSNRFSGVPDRFSGSGSGTDFTLKISRVEAEDVGVYYCSQTTHVPWTFGQGTKLEIKR
22.9 | – | hzA01-3.4 (antibody, human IgG4 S228P, kappa, V domains shown) VH: QVQLKESGPGLVKPSETLSLTCTVSGFSLPTSGVHWIRQPPGKGLEWIGVIWAGGDTNYNSALMSRVTISKDNSKSQVFLKMSSVTAADTAVYYCLGHGHFDVWGQGTLVTVSS VL: DVVMTQSPLSLPVTLGQPASISCRSSQSLVHSSGNTYLQWYLQRPGQSPGLLIYKVSNRFSGVPDRFSGSGSGTDFTLKISRVEAEDVGVYYCSQTTHVPWTFGQGTKLEIKR
